Test results taken from article PMC5500802.

What was measured:
[1] = biological target: GST-ACK GBD wild type, ACK(448-489) (UniProt Q07912); assay: BLI; Octet Red; GST fusion proteins (10 μg/ml) loaded on anti-GST sensors, dipped into a dilution range of Cdc42·GMPPNP; 50 mM Tris–HCl pH 7.5, 150 mM NaCl, 1 mM MgCl2, 0.02% Tween 20, 0.1% BSA, 0.05% sodium azide, 25 °C; GST-alone sensors subtracted
[2] = biological target: GST-WASP (Wiskott–Aldrich syndrome protein) fusion construct; assay: as above
[3] = biological target: GST-WASP ΔBR (basic region mutant of WASP); assay: as above
GST-ACK GBD A451D = GST-ACK GBD A451D (UniProt Q07912); assay: scintillation proximity assay (direct binding); 20 nM GST-ACK variant immobilised on protein A SPA fluoromicrospheres via an anti-GST antibody; varying concentrations of [3H]GTP-Cdc42; background without effector subtracted; apparent Kd from a direct binding isotherm
GST-ACK GBD D469A = GST-ACK GBD D469A (UniProt Q07912); assay: as above
GST-ACK GBD D480A = GST-ACK GBD D480A (UniProt Q07912); assay: as above
GST-ACK GBD F462A = GST-ACK GBD F462A (UniProt Q07912); assay: as above
GST-ACK GBD G468A = GST-ACK GBD G468A (UniProt Q07912); assay: as above
GST-ACK GBD H464A = GST-ACK GBD H464A (UniProt Q07912); assay: as above
GST-ACK GBD H464A/H467A = GST-ACK GBD H464A/H467A (UniProt Q07912); assay: as above
GST-ACK GBD H467A = GST-ACK GBD H467A (UniProt Q07912); assay: as above
GST-ACK GBD I463A = GST-ACK GBD I463A (UniProt Q07912); assay: as above
GST-ACK GBD L449A = GST-ACK GBD L449A (UniProt Q07912); assay: as above
GST-ACK GBD L485A = GST-ACK GBD L485A (UniProt Q07912); assay: as above
GST-ACK GBD L487A = GST-ACK GBD L487A (UniProt Q07912); assay: as above
GST-ACK GBD P457A = GST-ACK GBD P457A (UniProt Q07912); assay: as above
GST-ACK GBD Q452A = GST-ACK GBD Q452A (UniProt Q07912); assay: as above
GST-ACK GBD Q459A = GST-ACK GBD Q459A (UniProt Q07912); assay: as above
GST-ACK GBD R481A = GST-ACK GBD R481A (UniProt Q07912); assay: as above
GST-ACK GBD S450A = GST-ACK GBD S450A (UniProt Q07912); assay: as above
GST-ACK GBD S455A = GST-ACK GBD S455A (UniProt Q07912); assay: as above
GST-ACK GBD S461A = GST-ACK GBD S461A (UniProt Q07912); assay: as above
GST-ACK GBD S470A = GST-ACK GBD S470A (UniProt Q07912); assay: as above
GST-ACK GBD T465A = GST-ACK GBD T465A (UniProt Q07912); assay: as above
GST-ACK GBD W476A = GST-ACK GBD W476A (UniProt Q07912); assay: as above
[4] = biological target: GST-ACK GBD wild type, ACK(448-489) (UniProt Q07912); assay: as above
GST-ACK GBD Δ17 = GST-ACK GBD Δ17 (UniProt Q07912); assay: as above
Cdc42 Δ7 Q61L = Cdc42 Δ7 Q61L (UniProt P60953); assay: scintillation proximity assay (competition); 30 nM GST-WT ACK GBD immobilised on protein A SPA fluoromicrospheres via an anti-GST antibody, 30 nM [3H]GTP-Cdc42; increasing concentrations of GST-cleaved ACK variant; pure competition model, apparent Kd (Ki)

## Cdc42 Δ7 Q61L (from UniProt P60953 1-191) (natural protein)
[1]
  Kd: 130 nM
  kon: 224000 M⁻¹ s⁻¹
[2]
  Kd: 30 nM
  kon: 793000 M⁻¹ s⁻¹
[3]
  Kd: 220 nM
  kon: 360000 M⁻¹ s⁻¹
GST-ACK GBD A451D
  Kd: 189 nM
GST-ACK GBD D469A
  Kd: 38 nM
GST-ACK GBD D480A
  Kd: 164 nM
GST-ACK GBD F462A
  fold increase in Kd over WT: > 22.6 -fold
GST-ACK GBD G468A
  Kd: 67.3 nM
GST-ACK GBD H464A
  fold increase in Kd over WT: > 22.6 -fold
GST-ACK GBD H464A/H467A
  fold increase in Kd over WT: > 22.6 -fold
GST-ACK GBD H467A
  fold increase in Kd over WT: > 22.6 -fold
GST-ACK GBD I463A
  Kd: 152 nM
GST-ACK GBD L449A
  Kd: 492 nM
GST-ACK GBD L485A
  Kd: 31.4 nM
GST-ACK GBD L487A
  Kd: 330 nM
GST-ACK GBD P457A
  fold increase in Kd over WT: > 22.6 -fold
GST-ACK GBD Q452A
  Kd: 44 nM
GST-ACK GBD Q459A
  Kd: 29.8 nM
GST-ACK GBD R481A
  Kd: 107 nM
GST-ACK GBD S450A
  Kd: 167 nM
GST-ACK GBD S455A
  Kd: 243 nM
GST-ACK GBD S461A
  fold increase in Kd over WT: > 22.6 -fold
GST-ACK GBD S470A
  Kd: 35.4 nM
GST-ACK GBD T465A
  Kd: 85.4 nM
GST-ACK GBD W476A
  Kd: 137 nM
[4]
  Kd: 44.2 nM
GST-ACK GBD Δ17
  fold increase in Kd over WT: > 22.6 -fold

## GLSAQDISQPLQNSFIHTGHGDSDPRHCWGFPDRIDELYLGN (domain or fragment) [ACK GBD wild type, ACK(448-489), cleaved from GST]
Cdc42 Δ7 Q61L
  Kd: 20 nM

## GLSAQDIAQPLQNSFIHTGHGDSDPRHCWGFPDRIDELYLGN (domain or fragment) [ACK GBD S455A, cleaved from GST]
Cdc42 Δ7 Q61L
  Kd: 750 nM

## GLSAQDASQPLQNSFIHTGHGDSDPRHCWGFPDRIDELYLGN (domain or fragment) [ACK GBD I454A, cleaved from GST]
Cdc42 Δ7 Q61L
  Kd: 19700 nM

## GLSAQDISQPLQNSFIATGHGDSDPRHCWGFPDRIDELYLGN (domain or fragment) [ACK GBD H464A, cleaved from GST]
Cdc42 Δ7 Q61L
  Kd: 2510 nM

## GLSAQDISQALQNSFIHTGHGDSDPRHCWGFPDRIDELYLGN (domain or fragment) [ACK GBD P457A, cleaved from GST]
Cdc42 Δ7 Q61L
  Kd: 3830 nM

## GLSAQDISQPLQNSFIHTGAGDSDPRHCWGFPDRIDELYLGN (domain or fragment) [ACK GBD H467A, cleaved from GST]
Cdc42 Δ7 Q61L
  Kd: 1790 nM

## GLSAQDISQPLQNAFIHTGHGDSDPRHCWGFPDRIDELYLGN (domain or fragment) [ACK GBD S461A, cleaved from GST]
Cdc42 Δ7 Q61L
  Kd: 4160 nM

## GLSAQDISQPLQNSAIHTGHGDSDPRHCWGFPDRIDELYLGN (domain or fragment) [ACK GBD F462A, cleaved from GST]
Cdc42 Δ7 Q61L
  Kd: 3460 nM

## GLSAQDISQPLQNSFIHTGHGDSDP (domain or fragment) [ACK GBD Δ17, cleaved from GST]
Cdc42 Δ7 Q61L
  Kd: 4760 nM
